Non-standard residues stand in square brackets, D forms with d. No end group written: not given here. *: point of attachment. Dmt = Cc1cc(O)cc(C)c1C[C@H](N)C(=O)O; stearyl ester = CCCCCCCCCCCCCCCCCCO*

Series [1] is classed as physicochemical. The note with it: EY005-stearyl solubilized in methyl laurate, incubated 1 hour, HPLC.
Method: Kd values were calculated as [unbound]/[bound] fraction prodrug under each condition.
Series [2] deals with Albumin (Homo sapiens, UniProt P02768). As to the kind of experiment: Fluorescence microscopy of complexation of FITC-labeled drug with particulates. The class given is binding.
Text: (§1) As described herein, formation of MTT-prodrug-complex particulates can be verified experimentally by direct visualization. For example, the MTT-prodrug EY005-stearyl was fluorescently labeled with fluorescein isothiocyanate (FITC) and admixed with different complexation agents. The resultant mixture was then visualized under direct fluorescence microscopy. […] In contrast, FITC-labeled EY005-stearyl was not observed to form drug-complex particulates with silica microbeads (see FIG. 24A-24D), indicating the process of complexation and drug-complex particulate formation is highly dependent on favorable noncovalent interaction between drug and complexation agent.
(§2) Further, this noncovalent interaction is specifically mediated by the conjugation moiety of the MTT-prodrug. FITC-labeled EY005-stearyl that had been admixed with complexation agent was treated with an aqueous solution of carboxyesterase (0.1 μg/mL) to hydrolyze the ester bond of the prodrug, releasing the fluorescent peptide.
as §1, with “(FIG. 24C),” for “(see FIG. 24A-24D),”

Assay in series [3]: as above
Type of series: physicochemical. The note with it: for Fluorescence after carboxyesterase: carboxyesterase 0.1 μg/mL.
Text: as §1, §2
as §1, with “(FIG. 24C),” for “(see FIG. 24A-24D),”

The test system of series [4] is T1, EY005-stearyl prodrug (H-d-Arg-DMT-Lys-Phe(-O)-stearyl).
T1 sequence: RYKF

Series [5] deals with Albumin. The series can be described thus: pull-down by centrifugation in methyl laurate after 1 hour incubation, HPLC quantification; unitless ratio.
In series [6] the target is Albumin. The series can be described thus: pull-down by centrifugation in methyl laurate after 1 hour incubation, HPLC quantification.

With `OC[C@H]1O[C@@H]2O[C@H]3[C@H](O)[C@@H](O)[C@@H](O[C@H]4[C@H](O)[C@@H](O)[C@@H](O[C@H]5[C@H](O)[C@@H](O)[C@@H](O[C@H]6[C@H](O)[C@@H](O)[C@@H](O[C@H]7[C@H](O)[C@@H](O)[C@@H](O[C@H]8[C@H](O)[C@@H](O)[C@@H](O[C@H]9[C@H](O)[C@@H](O)[C@@H](O[C@H]1[C@H](O)[C@H]2O)O[C@@H]9CO)O[C@@H]8CO)O[C@@H]7CO)O[C@@H]6CO)O[C@@H]5CO)O[C@@H]4CO)O[C@@H]3CO` [Cyclodextrin gamma], the “μg EY005-stearyl complexed per mg complexation agent” value in series [1] is given as 2.3 μg per mg complexation agent.
For the molecule “FITC-labeled EY005 native peptide: EY005 native peptide labeled with fluorescein isothiocyanate ([dR][Dmt]KF-OH; also: FITC label, site not given here)”, the Complexation by fluorescence entry in series [2] is given as “minimal complexation”; in series [3] (silica microbeads), “interacted with silica microbeads creating fluorescent round figures”.
Regarding “FITC-labeled EY005-stearyl prodrug: MTT-prodrug EY005-stearyl fluorescently labeled with fluorescein isothiocyanate (FITC) ([dR][Dmt]KF-{stearyl ester}; also: FITC label, site not given here)”, the Complexation by fluorescence result in series [2] is “bright fluorescence”; in series [3] (silica microbeads), “no evidence of complexation”. The Fluorescence after carboxyesterase entry in series [2] (carboxyesterase 0.1 μg/mL) is listed as “reduced levels of fluorescence”; in series [3] (cyclodextrin), “reduced levels of fluorescence”; in series [3] (lecithin), “reduced levels of fluorescence”; in series [3] (magnesium stearate), “reduced levels of fluorescence”; in series [3] (silica microbeads) it was “did not alter extremely low levels of fluorescence”.
In the case of carboxyesterase, the “cleavage of the prodrug ester bond (HPLC)” value in series [4] is reported as “Incubation of EY005-stearyl with carboxyesterase produced rapid cleavage of the prodrug ester bond, releasing EY005”.
On to H-[dR][Dmt]KF-{stearyl ester} (also: DMT isomer not given here) [EY005-stearyl prodrug (H-d-Arg-DMT-Lys-Phe(-O)-stearyl)], for which, in series [5], the Calculated Kd ([unbound]/[bound] fraction of prodrug) was 1.34. In series [6], the µg EY005-stearyl complexed per mg complexation agent (binding capacity) (µg per mg complexation agent) came out at 4.5.
